# Measured values reported in patent US8025878 (BIOARCTIC NEUROSCIENCE, dated 2011).
# Changes are numbered by the printed parent chain.
# B1: Aβ1-16 (peptide, UniProt P05067 672-687, looked up)
# peptide: DAEFRHDSGYEVHHQK
# notes: domain: Aβ1-16; also called N-terminal part of the Aβ peptide; Aβ1-16 peptide
# B2: mouse monoclonal antibody 158 (mAb158) (antibody, V domains shown)
# VH: DVQLVESGGGLVQPGGSRKLSCAASGFTFSSFGMHWVRQAPEKGLEWVAYISSGSSTIYYGDTVKGRFTISRDNPKNTLFLQMTSLRSEDTAMYYCAREGGYYYGRSYYTMDYWGQGTSVTVSS
# VL: DVLMTQTPLSLPVSLGDQASISCRSSQSIVHSNGNTYLEWYLQKPGQSPKLLIYKVSNRFSGVPDRFSGSGSGTDFTLKISRVEAEDLGIYYCFQGSHVPPTFGGGTKLEIK
# notes: Mouse hybridoma IgG with a kappa light chain; In the sandwich ELISA the detecting copy was biotinylated; also called BA9
# B3: humanized 158 antibody (BAN2401) (antibody, V domains shown)
# VH: EVQLVESGGGLVQPGGSLRLSCSASGFTFSSFGMHWVRQAPGKGLEWVAYISSGSSTIYYGDTVKGRFTISRDNAKNSLFLQMSSLRAEDTAVYYCAREGGYYYGRSYYTMDYWGQGTTVTVS
# VL: B2 VL with L3V, T7S, S14T, L15P, D17A, Q18P, K79R, L88V, G105P
# Columns and labels:
# [1] = biological target: B2; assay: mAb158 sandwich ELISA, Aβ1-16 competing with 50 pM Aβ protofibrils
# Excerpt: (§1) A large excess of monomeric Aβ, holoAPP and APP-fragments, naturally occurring in biological samples, could interfere with the Aβ protofibril analysis by occupying binding sites of the capture antibody coat, thus inhibiting the protofibrils from binding. This problem was investigated by adding an increasing excess of Aβ1-16 to a fixed concentration of Aβ protofibrils (50 pM, expressed as monomer units) and analyzing it with both the mAb158 ELISA and a 6E10-6E10 sandwich ELISA (FIG. 6C). […] Moreover, when synthetic Aβ protofibrils was added to mock HEK cell culture media or non-transgenic mouse brain homogenates, 90% of the signal was recovered (data not shown).
# [2] = biological target: 6E10; assay: 6E10-6E10 sandwich ELISA, Aβ1-16 competing with 50 pM Aβ protofibrils
# Excerpt: as §1
# [3] = biological target: T1, medin fibrils (UniProt Q08431 268-317, not fully specified); assay: dot blot, fibrils on nitrocellulose membrane
# T1 construct: Fibrils immobilized on a nitrocellulose membrane
# T1 peptide (looked up): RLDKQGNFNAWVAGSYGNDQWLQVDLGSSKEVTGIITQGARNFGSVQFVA
# Excerpt: (§2) Due to technical difficulties in generating protofibrils from other amyloidogenic proteins than Aβ, mAb158 was instead tested against different amyloid fibrils. The dot blot assay was used for these experiments since inhibition ELISA, where the antibody-antigen reactions take place in solution, is not suitable for insoluble antigens like fibrils. The dot blot assay is however not suitable for evaluation of antibody specificity for various Aβ forms, i.e. for measuring differences in selectivity for profibrils and fibrils. […] As positive controls the antibodies 6E10 (Aβ), pAb179 (medin), pAbA110 (IAPP) and mAb211 (α-synuclein) were used (FIG. 5B). Representative blots from repeated experiments (n=3).
# [4] = biological target: T2, islet amyloid polypeptide (IAPP) fibrils (UniProt P10997 34-70, not fully specified); assay: dot blot, fibrils on nitrocellulose membrane
# T2 construct: Fibrils immobilized on a nitrocellulose membrane
# T2 peptide (looked up): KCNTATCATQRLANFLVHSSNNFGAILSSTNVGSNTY
# Excerpt: as §2
# [5] = biological target: α-synuclein fibrils (UniProt P37840 1-140); assay: dot blot, fibrils on nitrocellulose membrane
# Excerpt: as §2
# [6] = biological target: T3, C-terminal fragment of Aβ (UniProt P05067 688-711); assay: competitive ELISA, plate coated with Aβ protofibrils
# T3 construct: domain: C-terminal fragment of Aβ; also called Aβ fragment 17-40
# T3 peptide (looked up): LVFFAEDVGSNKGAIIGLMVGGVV
# Description: (§3) From competitive ELISA experiments, the antibody has a strong affinity for human Aβ42 wild-type protofibrils, but only very weak affinity for the N-terminal part of the Aβ peptide and Aβ monomers.
# In FIG. 2B a competitive ELISA is shown. An ELISA plate was coated with human Aβ protofibrils. […] The incubation mix was added to the microtiter plate wells and free antibody was allowed to bind to immobilized protofibrils in the wells.
# [7] = biological target: T4, AβArc protofibrils (human, UniProt P05067 672-713, limits assumed); assay: sandwich ELISA, mAb158 as both capturing and detecting antibody
# T4 construct: Used for a standard curve in the mAb158 sandwich ELISA; also called Arctic Aβ protofibrils
# Excerpt: Establishment of an Aβ protofibril specific sandwich ELISA. To enable measurements of Aβ protofibrils in biological samples a sandwich ELISA with mAb158 as both capturing and detecting antibody was established. This assay measures Aβ protofibrils with a detection limit of 1 pM and with a linear range up to 250 pM (FIG. 6A, lines indicate linear regression of the standard curves). Due to uncertainties concerning the size of the Aβ protofibrils used in the standard curve, the concentration 1 pM is based on the molecular weight of one Aβ monomer (4514 g/mol), Though, since the molecular weight of a protofibril has been estimated to be at least 100 kDa, the limit of detection calculated as molar Aβ protofibrils could be as low as 50 fM. A standard curve of AβArc protofibrils gave a lower signal than wild type Aβ protofibrils, possibly due to differences in Aβ protofibril size (FIGS. 6A, 6B). Titrated synthetic LMW-Aβ (Low Molecular Weight Aβ). By the term "Low Molecular Weight Aβ", it is meant monomers, dimers and trimers of Aβ having a molecular weight of approximately 4-12 kDa. Aβ protofibrils and Aβ1-16 were used to validate the conformation specificity of the ELISA (FIG. 6B), where the hydrophilic Aβ1-16 peptide was used since it is not expected to aggregate. […]
# [8] = biological target: T5, Aβ fibrils (UniProt P05067 672-713); assay: sandwich ELISA, mAb158 as capture and biotinylated mAb158 as detector
# T5 construct: Insoluble fibrillar aggregate
# Description: as §3
# In FIG. 2A a sandwich ELISA is shown. […] Colour development was measured according to the procedure recommended by the manufacturer.
# [9] = biological target: B1; assay: mAb158 sandwich ELISA with excess Aβ1-16 added to 50 pM Aβ protofibrils
# Excerpt: as §1
# [10] = biological target: T6, human Aβ42 wild-type protofibrils (human, UniProt P05067 672-713); assay: competitive ELISA with monomeric and protofibrillar Aβ
# T6 construct: domain: Aβ42; Soluble oligomeric aggregate of many Aβ42 peptides; also called Aβ protofibrils; human wild-type Aβ protofibrils
# T6 sequence (P05067 672-713 limits assumed): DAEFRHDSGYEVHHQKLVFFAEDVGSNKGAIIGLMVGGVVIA
# 6E10, sequence (VH, as listed by the source, chain 1 of 2): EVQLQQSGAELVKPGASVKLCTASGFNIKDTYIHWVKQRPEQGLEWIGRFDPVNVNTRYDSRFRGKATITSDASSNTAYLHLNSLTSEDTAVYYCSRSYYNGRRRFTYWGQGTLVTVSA
# 6E10, sequence (VL, as listed by the source, chain 2 of 2): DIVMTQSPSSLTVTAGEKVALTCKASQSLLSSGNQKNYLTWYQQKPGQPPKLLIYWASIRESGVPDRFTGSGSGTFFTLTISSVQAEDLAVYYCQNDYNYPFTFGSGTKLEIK
# T4 sequence (P05067 other isoform, or with tags, fused parts or gaps limits assumed): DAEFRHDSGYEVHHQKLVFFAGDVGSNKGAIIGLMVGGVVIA
# T5 sequence (P05067 672-713): as the sequence (P05067 672-713 limits assumed) above
binder,measurement,setting,value
B1,molar excess of Aβ1-16 over Aβ protofibrils that did not disturb the signal,[1],500000 fold
same,molar excess of Aβ1-16 over Aβ protofibrils enough to decrease the signal,[2],500 fold
B2,binding result,[3],no binding
same,binding result,[4],no binding
same,binding result,[5],no binding
same,binding result,[6],no binding
same,binding result,[7],binds
same,fold less cross-reactivity than with Aβ protofibrils,[8],< 40 fold
same,binding result,[9],binds
B3,binding result,[10],binds
